What was measured:
NF-κB RelA (p65) = NF-κB RelA (p65) (UniProt Q04206 1-551); test: fluorescence anisotropy
FOXO3 = FOXO3 (UniProt O43524 1-673); test: fluorescence anisotropy
Chain of FOXO3 (O43524 whole entry): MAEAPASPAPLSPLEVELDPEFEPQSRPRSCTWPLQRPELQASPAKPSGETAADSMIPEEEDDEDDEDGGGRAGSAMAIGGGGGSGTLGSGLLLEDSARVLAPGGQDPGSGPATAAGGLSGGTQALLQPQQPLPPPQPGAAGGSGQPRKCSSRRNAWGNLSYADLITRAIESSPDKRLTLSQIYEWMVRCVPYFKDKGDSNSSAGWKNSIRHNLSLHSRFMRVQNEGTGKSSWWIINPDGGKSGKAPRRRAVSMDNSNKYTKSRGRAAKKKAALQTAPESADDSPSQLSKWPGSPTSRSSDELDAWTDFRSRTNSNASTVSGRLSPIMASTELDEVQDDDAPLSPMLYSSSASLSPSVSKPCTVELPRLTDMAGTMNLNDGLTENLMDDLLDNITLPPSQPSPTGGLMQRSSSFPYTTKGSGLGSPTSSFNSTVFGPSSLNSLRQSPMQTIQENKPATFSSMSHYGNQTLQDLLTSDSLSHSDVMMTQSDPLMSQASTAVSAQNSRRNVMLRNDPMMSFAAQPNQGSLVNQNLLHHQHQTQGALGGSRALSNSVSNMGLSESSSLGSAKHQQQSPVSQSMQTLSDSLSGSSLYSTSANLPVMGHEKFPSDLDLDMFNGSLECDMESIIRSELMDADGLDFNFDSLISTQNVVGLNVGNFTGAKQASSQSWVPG

Chain of NF-κB RelA (p65) (Q04206 whole entry): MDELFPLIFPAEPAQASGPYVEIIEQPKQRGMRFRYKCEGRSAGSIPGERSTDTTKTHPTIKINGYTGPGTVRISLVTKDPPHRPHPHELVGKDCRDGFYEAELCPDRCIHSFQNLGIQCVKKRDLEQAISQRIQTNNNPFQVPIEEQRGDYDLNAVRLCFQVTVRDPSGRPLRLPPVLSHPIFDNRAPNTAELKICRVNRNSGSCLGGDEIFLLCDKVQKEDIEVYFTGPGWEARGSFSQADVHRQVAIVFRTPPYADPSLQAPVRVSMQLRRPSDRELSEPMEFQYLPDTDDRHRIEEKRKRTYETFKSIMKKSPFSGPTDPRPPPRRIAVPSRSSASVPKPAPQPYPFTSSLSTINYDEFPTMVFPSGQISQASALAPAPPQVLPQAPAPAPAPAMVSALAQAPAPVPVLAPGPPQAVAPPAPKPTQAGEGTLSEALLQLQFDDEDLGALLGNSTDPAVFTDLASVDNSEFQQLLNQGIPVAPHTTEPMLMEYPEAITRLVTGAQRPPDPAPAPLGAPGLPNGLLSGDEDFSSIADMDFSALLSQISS

B1: FOXO3 consensus duplex (dsDNA)
DNA 1: CGCATCCTATGTAAACAACTCGAGTC
DNA 2: GACTCGAGTTGTTTACATAGGATGCG
binding result (NF-κB RelA (p65)): no binding | binding result (FOXO3): binds

Source: paper PMC4670825
